Among the data in PMC2529288 are SLPI concentration (ELISA) in the lower Transwell compartment of A549 cells, 10 min after 10 nM NE was added to the lower compartment only, as % of control wells and SLPI concentration (ELISA) in the upper Transwell compartment of A549 cells, 10 min after 10 nM NE was added to the upper compartment only, as % of control wells values, retold here.

The target in the assay is Secretory leukoproteinase inhibitor (human (endogenous in A549)) (UniProt P03973).
Sequence of UniProt P03973 (P03973 26-132): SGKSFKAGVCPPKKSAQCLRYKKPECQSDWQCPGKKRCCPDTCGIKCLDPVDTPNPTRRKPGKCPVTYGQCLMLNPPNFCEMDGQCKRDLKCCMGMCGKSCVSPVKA

For “neutrophil elastase (from UniProt P08246 30-267) (enzyme)”, the SLPI concentration (ELISA) in the lower Transwell compartment of A549 cells, 10 min after 10 nM NE was added to the lower compartment only, as % of control wells was 8.6 % of control and the SLPI concentration (ELISA) in the upper Transwell compartment of A549 cells, 10 min after 10 nM NE was added to the upper compartment only, as % of control wells is 10.6 % of control.
